Measurements reported in patent US20230082465A1 (Hoffmann-La Roche, published 2023).

What was measured:
Fragment E = target: T1, Fragment E (human, UniProt P02671 20-97; P02675 84-152; P02679 27-79, limits assumed); experiment: BLI Octet, Example 4, FIG. 5
T1 construct: domain: Fragment E
T1 sequence (looked up) 1: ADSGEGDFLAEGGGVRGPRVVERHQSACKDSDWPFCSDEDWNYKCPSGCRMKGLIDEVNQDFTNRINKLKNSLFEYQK
T1 sequence (looked up) 2: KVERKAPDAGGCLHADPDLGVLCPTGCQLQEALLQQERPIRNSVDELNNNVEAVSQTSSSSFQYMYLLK
T1 sequence (looked up) 3: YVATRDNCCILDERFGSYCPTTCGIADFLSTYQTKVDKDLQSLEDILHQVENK

[1] = target: T2, Fragment E from fibrinogen (UniProt P02671 20-97; P02675 84-152; P02679 27-79, limits assumed); experiment: BLI Octet Red96e, biotinylated antibody on streptavidin tips
T2 construct: domain: Fragment E from fibrinogen; also called E (Fibrinogen)
T2 sequence (looked up) 1: T1 sequence (looked up) 1
T2 sequence (looked up) 2: T1 sequence (looked up) 2
T2 sequence (looked up) 3: T1 sequence (looked up) 3

Fragment E from fibrin = target: T3, Fragment E from fibrin (UniProt P02671 36-97; P02675 84-152; P02679 27-88, limits assumed); experiment: as above
T3 construct: domain: Fragment E from fibrin; also called E (Fibrin)
T3 sequence (looked up) 1: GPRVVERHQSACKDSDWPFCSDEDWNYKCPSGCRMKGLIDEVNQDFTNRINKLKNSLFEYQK
T3 sequence (looked up) 2: T1 sequence (looked up) 2
T3 sequence (looked up) 3: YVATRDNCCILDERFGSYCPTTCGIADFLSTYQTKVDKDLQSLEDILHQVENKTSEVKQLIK

Fibrinogen Fragment D = target: T4, Fibrinogen Fragment D (human, UniProt P02671 124-216; P02675 164-491; P02679 89-437, limits assumed); experiment: BLI Octet Red96e, biotinylated antibody on streptavidin tips; KD grade + = >=10^-8 M
T4 construct: domain: Fibrinogen Fragment D; Made in-house by digesting purified human fibrinogen with plasmin, then purified by SEC; also called fragment D from fibrinogen; D (Fibrinogen)
T4 sequence (looked up) 1: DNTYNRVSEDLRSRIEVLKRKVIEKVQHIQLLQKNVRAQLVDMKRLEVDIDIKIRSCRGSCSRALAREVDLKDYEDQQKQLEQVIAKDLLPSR
T4 sequence (looked up) 2: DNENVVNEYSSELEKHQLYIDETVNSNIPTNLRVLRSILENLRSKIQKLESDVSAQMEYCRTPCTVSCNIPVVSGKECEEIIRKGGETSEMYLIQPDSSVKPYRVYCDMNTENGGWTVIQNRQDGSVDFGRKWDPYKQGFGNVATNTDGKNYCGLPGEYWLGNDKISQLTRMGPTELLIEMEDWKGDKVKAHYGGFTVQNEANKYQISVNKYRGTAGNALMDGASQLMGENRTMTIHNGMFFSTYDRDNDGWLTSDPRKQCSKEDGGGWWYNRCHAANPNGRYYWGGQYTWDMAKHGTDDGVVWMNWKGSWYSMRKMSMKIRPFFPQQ
T4 sequence (looked up) 3: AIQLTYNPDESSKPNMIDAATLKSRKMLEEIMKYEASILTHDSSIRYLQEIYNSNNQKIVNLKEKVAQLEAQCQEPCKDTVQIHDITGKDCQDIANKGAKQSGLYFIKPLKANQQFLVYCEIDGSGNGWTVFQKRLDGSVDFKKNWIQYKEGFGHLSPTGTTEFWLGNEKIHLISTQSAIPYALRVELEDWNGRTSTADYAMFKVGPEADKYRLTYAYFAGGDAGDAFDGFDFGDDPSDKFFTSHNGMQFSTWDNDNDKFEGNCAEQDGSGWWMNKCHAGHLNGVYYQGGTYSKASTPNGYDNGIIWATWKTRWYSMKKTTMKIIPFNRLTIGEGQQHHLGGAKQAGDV
Description: (§1) The same set of mAbs were subjected to binding studies with fibrinogen, D-Dimer, and purified fibrin and fibrinogen fragments (see Table 2) using the BLI Octet Red96e system from Sartorius. KD was measured by loading biotinylated antibody samples on streptavidin BLI tips and introducing serial dilutions of prepared fragments. […] The experiments were conducted at room temperature and pressure.

Fibrinogen Fragment X = target: T5, Fibrinogen Fragment X (human, UniProt P02671 20-238; P02675 73-491; P02679 27-437, limits assumed); experiment: as above
T5 construct: domain: Fibrinogen Fragment X; Made in-house by digesting purified human fibrinogen with plasmin, then purified by SEC; also called X (Fibrinogen)
T5 sequence (looked up) 1: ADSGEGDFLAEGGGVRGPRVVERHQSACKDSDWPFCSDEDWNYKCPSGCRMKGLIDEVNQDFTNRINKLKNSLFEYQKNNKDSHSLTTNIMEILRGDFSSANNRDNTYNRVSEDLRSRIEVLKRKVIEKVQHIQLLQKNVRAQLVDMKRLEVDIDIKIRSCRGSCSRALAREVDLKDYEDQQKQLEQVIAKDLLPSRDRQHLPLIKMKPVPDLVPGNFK
T5 sequence (looked up) 2: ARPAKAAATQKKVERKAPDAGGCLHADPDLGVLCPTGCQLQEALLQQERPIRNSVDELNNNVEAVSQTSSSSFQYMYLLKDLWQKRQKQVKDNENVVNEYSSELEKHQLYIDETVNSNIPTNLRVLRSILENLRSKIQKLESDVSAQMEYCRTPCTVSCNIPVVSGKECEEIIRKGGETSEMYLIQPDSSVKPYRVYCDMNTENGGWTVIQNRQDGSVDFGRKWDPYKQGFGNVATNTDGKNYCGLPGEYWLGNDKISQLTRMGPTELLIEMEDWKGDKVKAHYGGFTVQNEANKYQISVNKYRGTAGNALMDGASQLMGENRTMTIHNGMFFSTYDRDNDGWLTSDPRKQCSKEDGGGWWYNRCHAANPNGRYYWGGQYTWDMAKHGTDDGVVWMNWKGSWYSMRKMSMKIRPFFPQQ
T5 sequence (looked up) 3: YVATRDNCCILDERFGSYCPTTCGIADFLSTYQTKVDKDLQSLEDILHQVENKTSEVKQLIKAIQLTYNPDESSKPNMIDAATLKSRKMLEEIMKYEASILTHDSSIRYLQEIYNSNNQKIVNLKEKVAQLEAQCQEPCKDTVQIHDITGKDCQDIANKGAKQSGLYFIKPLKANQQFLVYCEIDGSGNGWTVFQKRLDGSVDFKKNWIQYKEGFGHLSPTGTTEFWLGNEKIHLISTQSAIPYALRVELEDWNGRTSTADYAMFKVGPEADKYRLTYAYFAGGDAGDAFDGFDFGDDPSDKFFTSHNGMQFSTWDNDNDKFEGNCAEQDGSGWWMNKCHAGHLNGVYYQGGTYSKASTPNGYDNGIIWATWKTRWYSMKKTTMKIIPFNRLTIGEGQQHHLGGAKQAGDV
Description: as §1

Fibrinogen Fragment Y = target: T6, Fibrinogen Fragment Y (human, UniProt P02671 20-225; P02675 73-491; P02679 27-437, limits assumed); experiment: as above
T6 construct: domain: Fibrinogen Fragment Y; Made in-house by digesting purified human fibrinogen with plasmin, then purified by SEC; also called Y (Fibrinogen)
T6 sequence (looked up) 1: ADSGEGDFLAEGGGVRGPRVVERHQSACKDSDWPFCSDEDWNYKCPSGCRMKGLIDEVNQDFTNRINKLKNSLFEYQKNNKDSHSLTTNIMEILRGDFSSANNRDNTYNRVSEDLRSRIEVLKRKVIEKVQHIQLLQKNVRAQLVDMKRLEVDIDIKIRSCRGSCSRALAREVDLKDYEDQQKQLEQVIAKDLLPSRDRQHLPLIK
T6 sequence (looked up) 2: T5 sequence (looked up) 2
T6 sequence (looked up) 3: T5 sequence (looked up) 3
Description: as §1

binding result (Fragment E): no binding | binding result [1]: no binding | binding result (Fragment E from fibrin): no binding | KD (Fibrinogen Fragment D): ≥ 10 nM | KD (Fibrinogen Fragment X): ≥ 10 nM | KD (Fibrinogen Fragment Y): ≥ 10 nM
B1: recombinant antibody #12 (antibody, V domains shown)
VH: QVQLQQPGAEVVRPGASVKLSCKASGYSFTSYWIHWLKQGPHQGLEWIGRIDPDDSETHYNQKFKDKALLTVDKSSSTAYMQLRSLTSEDSAVYYCARTNWDAWFAYWGQGTLVTVSA
VL: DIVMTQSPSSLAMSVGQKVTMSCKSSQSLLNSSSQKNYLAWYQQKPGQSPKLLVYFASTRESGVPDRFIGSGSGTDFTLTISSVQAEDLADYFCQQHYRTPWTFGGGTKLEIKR
notes: The heavy chain is truncated after the murine IgG2a hinge and has no Fc; also called Ab#12; Ab#12 (Grifols)
